Among the data in patent US20110251266, “APTAMER FOR NGF AND USE THEREOF” (Shionogi & Co., Ltd., published 2011) are binding result, IC50 and activity values, retold here.

Substitutions are numbered along the chain they refer to. Where only a bound is given, the exact number is not on record here.

Data set [1] addresses T1, beta-NGF (nerve growth factor) (Homo sapiens, UniProt P01138 P01138:122-241). Kind of data set: SPR; more than 30N; inhibits TrkA and P75 binding. The note with it: tags: R&D Systems human NGF; chain copies: 2. As for the experimental part:
As directed in BIAcore Company's protocol, Protein A (21181, PIERCE) was immobilized on a CM5 sensor chip. About 1100 RU of human Trk A-Fc fused with the Fc portion of IgG (175-TK, R&D systems) was immobilized thereon. As the analyte, a mixture of NGF (0.1 μM) and each aptamer (0.33 μM) was injected after being allowed to stand for 30 minutes. […] When NGF binds stronger to a receptor than an aptamer, the aptamer may be removed and NGF may bind to the receptor. […] Using the binding amount of NGF and NGF receptor without an aptamer as 100, the binding amount of NGF and NGF receptor added with an aptamer was determined as a correction value. Here, the binding amount is the RU value at the peak top of the sensorgram of BIAcore (RU value immediately after completion of NGF injection). […] A similar experiment was performed for another receptor P75 (p75-Fc; R&D systems).

For data set [2], the target named is T1, beta-NGF (nerve growth factor). Kind of data set: SPR; more than 30N; cell IC50 26.1 nM. The note with it: tags: R&D Systems human NGF; chain copies: 2.
Data set [3] has the same target. Kind of data set: cell_activity; Neuroscreen-1 neurite outgrowth, 1.1 nM NGF. The following applies: tags: R&D Systems human NGF; chain copies: 2. As to the method: The neurite outgrowth inhibitory activity of aptamer was evaluated by using Neuroscreen-1 cell, which is a subclone of PC-12 cells. 2500 Cells per well were cultured for one day in an RPMI-1640 medium containing 2.5% horse serum and 1.25% fetal bovine serum in a 96 well flat-bottom plate coated with collagen type IV. A mixed solution of NGF (final concentration 15 ng/ml or 1.1 nM) prereacted in a serum-free RPMI-1640 medium at room temperature or 37° C. for 30 min to 1 hr and an aptamer (final concentration 500-3 nM) was added. Two or three days later, the cytoplasm and nuclei were stained using Cellomics Neurite Outgrowth Kits (manufactured by Thermo Scientific), and neurite length per cell was measured by Cellomics ArrayScan VTI (manufactured by Thermo Scientific). With the neurite length per cell obtained by culturing the cell for 2 days with the addition of NGF alone as inhibitory activity 0%, and that of the cell obtained by NGF free culture as inhibitory activity 100%, the inhibitory activity of the aptamer was calculated from the neurite length per cell obtained by culturing with the addition of NGF and the aptamer in mixture. […] When the inhibitory activity was 0% or below, ‘0%’ is indicated. […] The 50% inhibitory concentration was determined from the concentrations at two, above and below points sandwiching the 50% inhibitory activity.

For data set [4] the target is unchanged. Kind of data set: cell_activity; PC-12 neurite outgrowth, 500 nM aptamer. The following applies: tags: R&D Systems; chain copies: 2. As to the method:
The physiological activity of aptamer was evaluated by a neurite outgrowth suppressive experiment using PC-12 cells. PC-12 cell, which is a cell line derived from rat adrenal gland pheochromocytoma, is a model cell of the nervous system, elongates neurite by NGF stimulation, and differentiates like nerve cells. Whether or not an aptamer inhibits the neurite outgrowth was evaluated. PC-12 cells were seeded on a 96 well flat-bottom plate coated with collagen, and a mixed solution of NGF (final concentration 25 ng/ml, or 1.9 nM) prereacted for 1 hr at 37° C. and an aptamer (final concentration 500 nM) was added to start the cell culture. Thereafter, the same amount of the aptamer was added twice every 24 hr and the level of neurite outgrowth was observed and evaluated on day 3 with a microscope. For evaluation, scores 0-3 were used, where score 0 is no neurite outgrowth, score 1 is slight neurite outgrowth, score 2 is neurite outgrowth to the nearby cell, and score 3 is markedly reticulated neurite outgrowth. The system wherein PC-12 cells were cultivated for 3 days with the addition of NGF alone was taken as a negative control, and system capable wherein the cells for 3 days without addition of NGF was taken as a positive control. […] Setting the score of the negative control as inhibitory activity 0%, and the score of the positive control as inhibitory activity 100%, the inhibitory activity (%) of the aptamer was calculated. An inhibitory activity of not less than 50% is shown with +, and that of less than 50% is shown with −.

Data set [5] has the same target. Kind of data set: cell_activity; Neuroscreen-1 neurite outgrowth; 92% inhibition at 300 nM (Table 5). The following applies: tags: R&D Systems human NGF; chain copies: 2.
Data set [6] shares this target. Kind of data set: cell_activity; 100 nM aptamer; parent 92.7%. The following applies: tags: R&D Systems human NGF; chain copies: 2. As to the method: The neurite outgrowth inhibitory activity of aptamer was evaluated by using Neuroscreen-1 cell, which is a subclone of PC-12 cells. 2500 Cells per well were cultured for one day in an RPMI-1640 medium containing 2.5% horse serum and 1.25% fetal bovine serum in a 96 well flat-bottom plate coated with collagen type IV. A mixed solution of NGF (final concentration 15 ng/ml or 1.1 nM) prereacted in a serum-free RPMI-1640 medium at room temperature or 37° C. for 30 min to 1 hr and an aptamer (final concentration 500-3 nM) was added. Two or three days later, the cytoplasm and nuclei were stained using Cellomics Neurite Outgrowth Kits (manufactured by Thermo Scientific), and neurite length per cell was measured by Cellomics ArrayScan VTI (manufactured by Thermo Scientific). With the neurite length per cell obtained by culturing the cell for 2 days with the addition of NGF alone as inhibitory activity 0%, and that of the cell obtained by NGF free culture as inhibitory activity 100%, the inhibitory activity of the aptamer was calculated from the neurite length per cell obtained by culturing with the addition of NGF and the aptamer in mixture. […] When the inhibitory activity was 0% or below, ‘0%’ is indicated. When it was not less than 100%, ‘100%’ is indicated. The 50% inhibitory concentration was determined from the concentrations at two, above and below points sandwiching the 50% inhibitory activity.
Inverted dT is added to the 5′ and 3′ terminals. The activity was evaluated using Neuroscreen-1 cells in the same manner as in Example 8.

T1 sequence (P01138 122-241, one chain of several): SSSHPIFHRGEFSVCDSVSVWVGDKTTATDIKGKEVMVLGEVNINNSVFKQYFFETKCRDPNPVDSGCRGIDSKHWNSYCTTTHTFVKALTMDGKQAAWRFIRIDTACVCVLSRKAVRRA

B1: SEQ60 aptamer (ssRNA)
RNA: GGGAGAACUUCGACCAGAGGAUUUGAAAAAAACCCGAAUAAAGAUAACAGUAUGUGCGCAUACAUGGAUCCUCA
modifications: 2'-F pyrimidines
On to B1, for which, in data set [1], the binding result is “binds”.

B2: SEQ44 aptamer (ssRNA)
RNA: GGGGAACUUCGACCAGAAGUUUGAAAGAAACCCAAAAUUAGCACCAUAAUAUGUGCGCAUACAUGGAUCCUCA
modifications: 2'-F pyrimidines
Consider B2, for which the binding result in data set [2] is “binds”.

B3: SEQ68 aptamer (ssRNA)
RNA: GGGAGAACUUCGACCAGAAGUCGAGAGCGAAAGAAACUCCCAAAACACAGUAUGUGCGCAUACAUGGAUCCUCA
modifications: 2'-F pyrimidines
As usually defined, the IC50 is the concentration at which inhibition is half-maximal. A high value points to weaker potency. In data set [3], B3 yielded an IC50 of 1.9 nM.

B4: SEQ32(2) (ssRNA)
RNA: UGUGGAGCUGCUUAAACAAGCAAGUGAAAAAAACCACA
modifications: 2'-F all pyrimidines; 2'-OMe at g2,a38
Turning to B4, in data set [4], the activity is not below 50 % inhibition.

B5: SEQ32(3) (ssRNA)
RNA: B4 RNA
modifications: 2'-F all pyrimidines; 2'-OMe at a30,a31
The molecule B5 came in with an activity in data set [4] not below 50 % inhibition.

B6: SEQ35 aptamer (ssRNA)
RNA: GGGAAGCCUGUGGAGCUGCAGGAUGAAAAAAACCCAAA
modifications: 2'-F pyrimidines
Molecule B6 came in with an IC50 in data set [5] of 91.5 nM.

B7: SEQ35(3) (ssRNA)
RNA: B6 RNA
modifications: 2'-F all pyrimidines; 2'-OMe at a36,a37,a38
Consider B7, for which the activity in data set [4] was not below 50 % inhibition.

B8: SEQ35(2) (ssRNA)
RNA: B6 RNA
modifications: 2'-F all pyrimidines; 2'-OMe at a4,a5,g6,g10,g18,a20,g21,g22,a29,a30,a31,a32; idT at 5' and 3' ends
With B8, the activity in data set [4] is not below 50 % inhibition.

B9: SEQ30(6) G1:C41 to C:G (ssRNA)
RNA: CGGAUAAAAAUAGAGUUUGAUAAACACCUGUAUUAAAACCG
modifications: as SEQ30(6) [as SEQ30(6) (positions not stated)]
B9: the activity in data set [6] is 92 % inhibition.

B10: SEQ30(6) A10:U33 to U:A (ssRNA)
RNA: B9 RNA with C1G, A10U, U33A, G41C
modifications: as SEQ30(6) [as SEQ30(6) (positions not stated)]
Turning to B10, in data set [6], the activity was 80.8 % inhibition.

B11: SEQ30(6) A12:U31 to U:A (ssRNA)
RNA: B9 RNA with C1G, A12U, U31A, G41C
modifications: as SEQ30(6) [as SEQ30(6) (positions not stated)]
As for B11, the activity in data set [6] is 93.1 % inhibition.
